Source: US20140154241A1 (CYCLOGENIX, published 2014)

B1: modified igNAR peptide clone B10 (VNAR)
VNAR: RVDQTPRIATKETGESLTINCVLRDTACALDSTNWYRTKLGSTKEQTISIGGRYSETADEGSNPASLTIRDLRVEDSGTYKCKAAITPFDNWYECLGTRAEGAGTVLTVK
B2: representative full igNAR clone of SEQ ID NO: 8 (VNAR)
VNAR: RVDQTPRIATKETGESLTINCVLRDTACALDSTNWYRTKLGSTKEQTISIGGRYSETVDEGSNSASLTIRDLRVEDSGTYKCKAAITPFDNWYECLGTRAEGAGTVLTVK

Target: T1, human serum albumin (HSA) (human, UniProt P02768 25-609)
T1 construct: Coated on ELISA plates or immunotubes; also called HuSA
Assay: phage ELISA on coated HSA

T1 sequence (P02768 25-609 limits assumed): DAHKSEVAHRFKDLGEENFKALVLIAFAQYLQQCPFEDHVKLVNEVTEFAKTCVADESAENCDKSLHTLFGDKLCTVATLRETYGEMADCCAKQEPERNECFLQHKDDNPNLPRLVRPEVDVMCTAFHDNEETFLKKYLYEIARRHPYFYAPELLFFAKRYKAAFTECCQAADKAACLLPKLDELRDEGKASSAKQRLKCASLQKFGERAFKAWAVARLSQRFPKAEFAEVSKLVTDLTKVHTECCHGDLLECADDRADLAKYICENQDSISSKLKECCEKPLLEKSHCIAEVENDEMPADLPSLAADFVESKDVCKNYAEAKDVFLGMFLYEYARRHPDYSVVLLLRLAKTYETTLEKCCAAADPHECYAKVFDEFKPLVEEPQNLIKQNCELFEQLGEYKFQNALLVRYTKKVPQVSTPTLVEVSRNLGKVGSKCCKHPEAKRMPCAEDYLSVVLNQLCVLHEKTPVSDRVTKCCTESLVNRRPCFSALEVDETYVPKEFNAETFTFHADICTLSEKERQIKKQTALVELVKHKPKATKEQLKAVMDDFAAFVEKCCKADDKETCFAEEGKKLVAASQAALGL

| Binder | binding result |
| --- | --- |
| B1 | binds |
| B2 | binds |
